What is called Kd is the concentration at which binding is half-saturated. A lower Kd goes with tighter binding.

These results are taken from patent publication US20200157147A1 (SEOUL NATIONAL UNIVERSITY HOSPITAL, published 2020).

The assay deals with T1, hResistin (human, UniProt Q9HD89 19-108).
T1 construct: Immobilised on the SPR chip; also called human resistin; resistin protein
T1 sequence (looked up): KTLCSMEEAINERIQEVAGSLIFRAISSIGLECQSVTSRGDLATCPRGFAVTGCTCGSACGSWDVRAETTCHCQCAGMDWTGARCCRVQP
Briefly: SPR (Reichert SR7500DC), hResistin immobilised on CMDH chip, peptide injected in PBS. On the procedure:
To measure the direct binding of hResistin and VS_peptide (SEQ ID NO: 2), SPR analysis was performed using Reichert SR7500DC system. hResistin (1.8 ug) and hPCSK9 (1.6 ug) proteins were immobilized on the carboxymethyl dextran hydrogel surface sensor chip (CMDH chip, Cat#: 13206066) by using a 10 mM sodium acetate immobilization buffer (pH 5.5 or pH 4.5). VS_peptide (SEQ ID NO: 2) diluted in PBS buffer (pH 7.4) in a dose-dependent manner was injected into the sensor chip (flow rate: 30 μl/min, association time: 3 min) to measure the response unit (RU) for binding strength. After the measurement of RU values for binding strength, PBS buffer (pH 7.4) was allowed to flow over the sensor chip at a rate of 30 μl/min for 3 minutes to measure dissociation RU values of VS_peptide (SEQ ID NO: 2) from hResistin immobilized on the chip. The dissociation equilibrium constant (KD) of VS_peptide (SEQ ID NO: 2) for hResistin was derived using Scrubber2 software (KD=Kd/Kₐ, Kₐ=association rate, Kd=dissociation rate).

B1: VS_peptide (SEQ ID NO: 2) (peptide)
peptide: PPPPGPPPPPVSTSSGSDES
notes: Synthesised by Peptron, Korea; also called peptide VS; Existing peptide
B1 gave a Kd of 3.7 mM.
